Assay results from publication PMC3176292, “Mutations in Protein-Binding Hot-Spots on the Hub Protein Smad3 Differentially Affect Its Protein Interactions and Smad3-Regulated Gene Expression” (PLoS ONE, 2011).

T1: SARA Smad-binding domain (amino acids 665–721) on the 3xFlag-thioredoxin scaffold (UniProt O95405 767-823)
T1 construct: SARA, amino acids 665–721; cloned into the unique RsrII site of pCI-3xFLAG-Trx; also called SARA aa665–721; TrxSARA; source: HEK-293, transfected, in lysate
T1 sequence (looked up): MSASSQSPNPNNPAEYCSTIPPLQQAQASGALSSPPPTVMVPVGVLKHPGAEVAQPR

T2: Ski Smad-binding domain (amino acids 2–56) on the 3xFlag-thioredoxin scaffold (UniProt P12755 2-56)
T2 construct: Ski, amino acids 2–56; cloned into the unique RsrII site of pCI-3xFLAG-Trx; also called Ski aa2–56; TrxSki; source: HEK-293, transfected, in lysate
T2 sequence (looked up): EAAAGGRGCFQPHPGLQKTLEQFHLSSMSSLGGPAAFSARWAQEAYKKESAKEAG

T3: Flag-Smad4, full length (UniProt Q13485 1-552)
T3 construct: Smad4; plasmid pCMV5-Flag-Smad4 (from J. Massagué); also called Smad4 FL; source: HEK-293, transfected, in lysate
T3 sequence (looked up): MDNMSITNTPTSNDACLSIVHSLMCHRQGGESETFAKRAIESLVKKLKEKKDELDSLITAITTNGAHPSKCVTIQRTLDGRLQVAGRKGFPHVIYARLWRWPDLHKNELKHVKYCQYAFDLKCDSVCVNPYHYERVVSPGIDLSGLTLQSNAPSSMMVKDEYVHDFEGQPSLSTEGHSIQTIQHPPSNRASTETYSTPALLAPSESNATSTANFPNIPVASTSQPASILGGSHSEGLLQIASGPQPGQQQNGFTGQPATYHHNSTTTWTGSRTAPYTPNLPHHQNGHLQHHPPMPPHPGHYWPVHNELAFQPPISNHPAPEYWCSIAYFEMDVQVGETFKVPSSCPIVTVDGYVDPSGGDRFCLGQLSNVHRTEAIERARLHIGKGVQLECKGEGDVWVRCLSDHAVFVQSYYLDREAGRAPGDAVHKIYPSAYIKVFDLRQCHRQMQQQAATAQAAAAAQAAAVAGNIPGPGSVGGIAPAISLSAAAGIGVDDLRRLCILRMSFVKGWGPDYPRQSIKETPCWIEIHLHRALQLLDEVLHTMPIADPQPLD


How the values were obtained:
Conditions in all cases: partners not purified
[1] = target: T1, SARA Smad-binding domain (amino acids …); experiment: co-IP; LUMIER: Renilla luciferase-Smad3 and Flag-tagged partner co-expressed with constitutively active Alk5 in HEK-293; Flag protein captured from cleared lysate (TNE: 10 mM Tris-HCl pH 7.8, 150 mM NaCl, 1 mM EDTA, 1% Igepal CA-630) on anti-Flag 96-well plates, 2 h at 4 °C; co-precipitated Renilla luciferase activity, TrxGA background subtracted, percent of wild-type Smad3
[2] = target: T4, Smurf2 Smad-binding domain (amino acids 252–330) on the Flag-thioredoxin scaffold (UniProt Q9HAU4 252-330); experiment: as above
T4 construct: Smurf2, amino acids 252–330; also called Smurf2 aa252–330; TrxSmurf2; source: HEK-293, transfected, in lysate

[3] = target: T2, Ski Smad-binding domain (amino acids …); experiment: as above
Flag-Smad4, full length = target: T3, Flag-Smad4, full length; experiment: as above
[4] = target: T1, SARA Smad-binding domain (amino acids …); experiment: co-IP; LUMIER as a1 but without co-expression of the activated Alk5 kinase (Smad3 not phosphorylated); percent of phosphorylated wild-type Smad3

T4 sequence (Q9HAU4 252-330): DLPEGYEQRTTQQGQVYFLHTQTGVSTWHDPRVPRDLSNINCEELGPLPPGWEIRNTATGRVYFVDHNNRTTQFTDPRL

Row | Binder | percent binding relative to wild-type Smad3 [1] | percent binding relative to wild-type Smad3 [2] | percent binding relative to wild-type Smad3 [3] | percent binding relative to wild-type Smad3 (Flag-Smad4, full length) | percent binding relative to wild-type Smad3 [4]
1 | Renilla luciferase-Smad3 wild type, co-expressed with constitutively active Alk5 (phosphorylated Smad3) (natural protein, UniProt P84022 1-425, looked up, phosphorylated by the co-expressed activated Alk5 kinase (sites not given), Smad3; plasmid pCMV5-hRLuc-Smad3 (from J. Wrana); also called Smad3 WT+Alk5; Renilla-Smad3; source: HEK-293, transfected together with constitutively active Alk5, in lysate) MSSILPFTPPIVKRLLGWKKGEQNGQEEKWCEKAVKSLVKKLKKTGQLDELEKAITTQNVNTKCITIPRSLDGRLQVSHRKGLPHVIYCRLWRWPDLHSHHELRAMELCEFAFNMKKDEVCVNPYHYQRVETPVLPPVLVPRHTEIPAEFPPLDDYSHSIPENTNFPAGIEPQSNIPETPPPGYLSEDGETSDHQMNHSMDAGSPNLSPNPMSPAHNNLDLQPVTYCEPAFWCSISYYELNQRVGETFHASQPSMTVDGFTDPSNSERFCLGLLSNVNRNAAVELTRRHIGRGVRLYYIGGEVFAECLSDSAIFVQSPNCNQRYGWHPATVCKIPPGCNLKIFNNQEFAALLAQSVNQGFEAVYQLTRMCTIRMSFVKGWGAEYRRQTVTSTPCWIELHLNGPLQWLDKVLTQMGSPSIRCSSVS | 100% | 100% | 100% |  | 
2 | Renilla luciferase-Smad3 QPSMT/SE mutant (residues 252–256 and 266–267 changed to the Smad1 equivalents STSVL/NKN) (natural protein, UniProt P84022 1-425, looked up, Smad3 with two stretches replaced by those of Smad1; source plasmid pcDNA3-Flag-Smad3(STSVL/NKN) from K. Miyazono; assayed as Renilla fusion; also called Smad3(STSVL/NKN); Smad1/3 chimeric protein; source: HEK-293, transfected together with constitutively active Alk5, in lysate) MSSILPFTPPIVKRLLGWKKGEQNGQEEKWCEKAVKSLVKKLKKTGQLDELEKAITTQNVNTKCITIPRSLDGRLQVSHRKGLPHVIYCRLWRWPDLHSHHELRAMELCEFAFNMKKDEVCVNPYHYQRVETPVLPPVLVPRHTEIPAEFPPLDDYSHSIPENTNFPAGIEPQSNIPETPPPGYLSEDGETSDHQMNHSMDAGSPNLSPNPMSPAHNNLDLQPVTYCEPAFWCSISYYELNQRVGETFHASSTSVLVDGFTDPSNNKNRFCLGLLSNVNRNAAVELTRRHIGRGVRLYYIGGEVFAECLSDSAIFVQSPNCNQRYGWHPATVCKIPPGCNLKIFNNQEFAALLAQSVNQGFEAVYQLTRMCTIRMSFVKGWGAEYRRQTVTSTPCWIELHLNGPLQWLDKVLTQMGSPSIRCSSVS | 61% | 86% | 4% | 132% | 
3 | Renilla luciferase-Smad3 wild type, without Alk5 (not phosphorylated) (natural protein, UniProt P84022 1-425, looked up, Smad3; also called Smad3 WT, No Alk5; source: HEK-293, transfected without Alk5, in lysate) MSSILPFTPPIVKRLLGWKKGEQNGQEEKWCEKAVKSLVKKLKKTGQLDELEKAITTQNVNTKCITIPRSLDGRLQVSHRKGLPHVIYCRLWRWPDLHSHHELRAMELCEFAFNMKKDEVCVNPYHYQRVETPVLPPVLVPRHTEIPAEFPPLDDYSHSIPENTNFPAGIEPQSNIPETPPPGYLSEDGETSDHQMNHSMDAGSPNLSPNPMSPAHNNLDLQPVTYCEPAFWCSISYYELNQRVGETFHASQPSMTVDGFTDPSNSERFCLGLLSNVNRNAAVELTRRHIGRGVRLYYIGGEVFAECLSDSAIFVQSPNCNQRYGWHPATVCKIPPGCNLKIFNNQEFAALLAQSVNQGFEAVYQLTRMCTIRMSFVKGWGAEYRRQTVTSTPCWIELHLNGPLQWLDKVLTQMGSPSIRCSSVS |  |  |  |  | 78%
